{
  "source": "patent CN101273061A",
  "key": {"[1]": {"biological_target": "重组产生的C末端截短的RSV(A2毒株)F蛋白 (RSV(A2毒株)) (UniProt P03420)", "sequence (P03420 26-524)": "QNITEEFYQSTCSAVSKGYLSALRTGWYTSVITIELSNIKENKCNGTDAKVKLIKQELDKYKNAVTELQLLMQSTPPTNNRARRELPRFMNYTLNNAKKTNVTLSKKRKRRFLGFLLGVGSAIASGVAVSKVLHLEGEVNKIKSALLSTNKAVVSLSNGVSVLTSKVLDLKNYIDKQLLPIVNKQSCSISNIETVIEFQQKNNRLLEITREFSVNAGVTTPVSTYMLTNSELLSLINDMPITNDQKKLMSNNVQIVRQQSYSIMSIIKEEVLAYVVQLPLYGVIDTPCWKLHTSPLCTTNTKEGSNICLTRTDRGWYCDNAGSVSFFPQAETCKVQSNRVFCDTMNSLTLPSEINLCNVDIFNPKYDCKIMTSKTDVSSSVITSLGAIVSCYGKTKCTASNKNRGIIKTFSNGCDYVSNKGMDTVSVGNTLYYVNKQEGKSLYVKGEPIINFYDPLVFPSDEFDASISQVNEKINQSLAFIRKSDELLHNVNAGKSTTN", "test": "SPR (BIAcore 3000); truncated F protein on CM5 chip at low density; off-rate at the instrument's detection limit, so an estimate"}, "[2]": {"biological_target": "重组产生的C末端截短的RSV(A2毒株)F蛋白 (RSV(A2毒株)) (UniProt P03420)"}},
  "data": [
    {"substance": "A4B4L1FR-S28R(莫维珠单抗) (antibody)", "values": [
      {"measurement": "fold lower dissociation rate (koff) than palivizumab", "setting": "[1]", "result": 17, "unit": "fold"},
      {"measurement": "fold higher affinity than palivizumab", "setting": "[2]", "result": 70, "unit": "fold"},
      {"measurement": "fold higher association rate (kon) than palivizumab", "setting": "[2]", "result": 4, "unit": "fold"}
    ]}
  ]
}
